Literature values as cited in paper PMC6802610.

How the values were obtained:
Rab1 (Homo sapiens) = Rab1 (Homo sapiens) (UniProt P62820)
GDI (Homo sapiens) = GDI (Homo sapiens) (UniProt P31150)
GDI (Homo sapiens), sequence (P31150 whole entry): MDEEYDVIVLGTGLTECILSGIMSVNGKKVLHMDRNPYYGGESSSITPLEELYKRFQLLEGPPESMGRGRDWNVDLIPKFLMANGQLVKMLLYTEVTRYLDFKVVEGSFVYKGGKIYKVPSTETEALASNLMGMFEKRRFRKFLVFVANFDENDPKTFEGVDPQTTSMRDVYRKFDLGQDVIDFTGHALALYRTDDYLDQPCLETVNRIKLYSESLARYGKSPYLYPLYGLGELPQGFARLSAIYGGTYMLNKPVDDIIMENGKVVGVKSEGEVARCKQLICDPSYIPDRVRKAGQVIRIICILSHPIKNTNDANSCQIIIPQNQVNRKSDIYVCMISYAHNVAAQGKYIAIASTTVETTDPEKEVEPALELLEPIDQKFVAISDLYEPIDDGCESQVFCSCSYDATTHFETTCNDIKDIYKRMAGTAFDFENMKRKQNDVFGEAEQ

Rab1 (Homo sapiens), sequence (P62820 2-205): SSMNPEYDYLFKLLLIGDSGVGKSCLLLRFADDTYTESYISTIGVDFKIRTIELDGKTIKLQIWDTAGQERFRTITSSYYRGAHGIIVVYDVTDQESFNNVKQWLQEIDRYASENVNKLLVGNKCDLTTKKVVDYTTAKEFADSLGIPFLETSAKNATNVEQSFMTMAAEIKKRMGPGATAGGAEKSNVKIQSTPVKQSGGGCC
Rab1, sequence (P62820 2-205): as above
SidM/DrrA, sequence (Q5ZSQ3 whole entry): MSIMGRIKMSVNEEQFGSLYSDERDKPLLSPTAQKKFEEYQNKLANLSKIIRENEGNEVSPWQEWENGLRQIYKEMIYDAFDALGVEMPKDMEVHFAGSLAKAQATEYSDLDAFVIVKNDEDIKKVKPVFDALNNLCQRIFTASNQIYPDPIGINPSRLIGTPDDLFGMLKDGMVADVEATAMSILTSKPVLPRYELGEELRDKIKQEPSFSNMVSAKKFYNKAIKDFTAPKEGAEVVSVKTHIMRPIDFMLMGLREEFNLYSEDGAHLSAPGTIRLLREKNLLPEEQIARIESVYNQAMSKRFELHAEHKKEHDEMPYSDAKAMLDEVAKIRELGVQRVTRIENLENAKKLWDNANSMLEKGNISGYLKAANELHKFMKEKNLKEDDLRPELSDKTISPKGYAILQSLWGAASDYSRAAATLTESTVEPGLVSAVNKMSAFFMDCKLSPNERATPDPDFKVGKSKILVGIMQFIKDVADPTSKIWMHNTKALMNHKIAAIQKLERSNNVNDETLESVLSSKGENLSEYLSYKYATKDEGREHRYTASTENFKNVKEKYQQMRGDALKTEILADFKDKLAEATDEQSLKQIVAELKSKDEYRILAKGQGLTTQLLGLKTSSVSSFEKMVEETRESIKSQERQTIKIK

For SidM/DrrA (from UniProt Q5ZSQ3), the Kd (Rab1 (Homo sapiens)) is given as 84 nM.
In the case of Rab1 (from UniProt P62820), the Kd (GDI (Homo sapiens)) is given as 20 nM.
